From patent US20190169308A1 (ALLIGATOR BIOSCIENCE, published 2019)

T1: 5T4-Fc (human, UniProt Q13641 32-355, limits assumed)
T1 construct: obtained from Peter L. Stern, University of Manchester; also called h5T4-Fc; recombinant 5T4
T1 sequence (looked up): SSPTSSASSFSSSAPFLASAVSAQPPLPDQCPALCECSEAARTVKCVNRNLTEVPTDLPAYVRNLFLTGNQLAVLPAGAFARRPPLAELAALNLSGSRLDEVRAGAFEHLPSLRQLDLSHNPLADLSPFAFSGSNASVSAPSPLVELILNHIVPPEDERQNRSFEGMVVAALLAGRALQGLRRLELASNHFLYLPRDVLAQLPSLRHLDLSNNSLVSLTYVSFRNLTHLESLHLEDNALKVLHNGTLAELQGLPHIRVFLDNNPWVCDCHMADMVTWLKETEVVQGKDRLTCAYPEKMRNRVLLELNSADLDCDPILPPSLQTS

T2: cynomolgus 5T4 on transfected CHO cells (Macaca mulatta (cynomolgus), UniProt F7CT46 35-420)
T2 construct: also called cyno5T4; cy5T4
T2 sequence: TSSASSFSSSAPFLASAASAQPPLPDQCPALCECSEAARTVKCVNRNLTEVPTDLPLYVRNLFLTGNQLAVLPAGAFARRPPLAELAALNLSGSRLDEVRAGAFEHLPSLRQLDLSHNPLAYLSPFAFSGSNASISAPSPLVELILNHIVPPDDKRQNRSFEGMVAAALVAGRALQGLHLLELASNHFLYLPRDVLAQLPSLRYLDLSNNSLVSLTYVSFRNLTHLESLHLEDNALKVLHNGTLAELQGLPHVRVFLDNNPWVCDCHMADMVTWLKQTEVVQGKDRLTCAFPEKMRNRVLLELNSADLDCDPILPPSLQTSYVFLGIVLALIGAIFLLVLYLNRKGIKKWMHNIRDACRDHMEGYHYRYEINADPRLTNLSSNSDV

T3: 5T4 (SPR antigen) (UniProt Q13641 32-355, limits assumed, biotinylated on the MASS-1 platform)
T3 construct: also called biotinylated 5T4
T3 sequence (looked up): T1 sequence (looked up)

T4: mouse 5T4 on transfected cells (mouse, UniProt Q9Z0L0 32-426)
T4 construct: whole, on cells; also called murine 5T4
T4 sequence (looked up): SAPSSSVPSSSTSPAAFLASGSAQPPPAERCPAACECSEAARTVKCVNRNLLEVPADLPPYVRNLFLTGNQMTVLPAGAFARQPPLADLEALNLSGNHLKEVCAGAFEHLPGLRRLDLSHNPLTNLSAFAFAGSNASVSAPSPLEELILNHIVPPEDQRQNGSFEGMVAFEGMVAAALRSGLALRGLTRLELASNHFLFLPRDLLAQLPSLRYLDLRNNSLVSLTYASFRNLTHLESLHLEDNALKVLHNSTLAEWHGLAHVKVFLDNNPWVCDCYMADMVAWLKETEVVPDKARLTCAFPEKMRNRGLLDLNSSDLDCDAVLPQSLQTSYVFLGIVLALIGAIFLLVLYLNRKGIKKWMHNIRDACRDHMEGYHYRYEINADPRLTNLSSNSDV

T5: human 5T4 on transfected cells (human, UniProt Q13641 32-420)
T5 construct: whole, on cells; also called B16-5T4; CHOh5T4
T5 sequence (looked up): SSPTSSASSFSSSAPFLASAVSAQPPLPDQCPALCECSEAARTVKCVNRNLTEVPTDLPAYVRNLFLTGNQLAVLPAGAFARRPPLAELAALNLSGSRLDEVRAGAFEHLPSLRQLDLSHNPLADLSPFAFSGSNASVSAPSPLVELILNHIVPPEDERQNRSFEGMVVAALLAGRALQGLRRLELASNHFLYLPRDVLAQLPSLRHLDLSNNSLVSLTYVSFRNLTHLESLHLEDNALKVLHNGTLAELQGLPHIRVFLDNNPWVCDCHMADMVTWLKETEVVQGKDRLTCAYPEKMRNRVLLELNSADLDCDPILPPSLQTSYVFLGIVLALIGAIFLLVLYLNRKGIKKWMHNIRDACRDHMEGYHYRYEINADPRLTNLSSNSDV

B1: 1626-1208 (bispecific antibody)
heavy: not shown
light: DIQMTQSPSSLSASVGDRVTITCRASQSISSYLNWYQQKPGKAPKLLIYAASSLQSGVPSRFSGSGSGTDFTLTISSLQPEDFATYYCQQGTGYGPLTFGQGTKLEIKRTVAAPSVFIFPPSDEQLKSGTASVVCLLNNFYPREAKVQWKVDNALQSGNSQESVTEQDSKDSTYSLSSTLTLSKADYEKHKVYACEVTHQGLSSPVTKSFNRGEC
notes: Morrison format IgG-scFv
B2: 1626-1210 (bispecific antibody)
heavy: not shown
light: B1 light
notes: Morrison format IgG-scFv
B3: 1212/1213 (antibody, V domains shown)
VH: EVQLLESGGGLVQPGGSLRLSCAASGFTFSSYAMSWVRQAPGKGLEWVSYISSYGGYTSYADSVKGRFTISRDNSKNTLYLQMNSLRAEDTAVYYCARYHSGVLDYWGQGTLVTVSS
VL: DIQMTQSPSSLSASVGDRVTITCRASQSISSYLNWYQQKPGKAPKLLIYAASSLQSGVPSRFSGSGSGTDFTLTISSLQPEDFATYYCQQYYYHYLLTFGQGTKLEIK

Legend:
[1] = biological target: T1, 5T4-Fc; assay: dual ELISA: coated 5T4-Fc, detection with CD137-bio
Description: Bispecific binding to both targets, CD137 and 5T4, was evaluated using a standard ELISA protocol. Plates (#655074, Greiner Bio-One GmbH, Germany) were pre-coated with 0.5 μg/ml 5T4-Fc (obtained from Professor Peter Stern, University of Manchester) overnight. CD137-5T4 bsAb were diluted from 8 to 2×10⁻³ μg/ml in 1:4 dilutions and added in duplicates of 50 μl to each well. CD137-bio (Ancell #502-030) was used as detection antibody at 0.5 μg/ml and the binding was detected with Streptavidin-HRP (Pierce #21126). The ELISA was developed with SuperSignal ELISA PICO Chemiluminescent substrate (Thermo Scientific Pierce, Rockford, Ill. USA) during 2-10 minutes and read in an automated microplate based multi-detection reader (FLUOstar OPTIMA, Netherlands).

[2] = biological target: T1, 5T4-Fc; assay: ELISA, coated 5T4-Fc
Description: ELISA was performed using a standard protocol. Plates (#655074, Greiner Bio-One GmbH, Germany) were pre-coated with 0.5 μg/ml 5T4-Fc (obtained from Peter L. Stern, University of Manchester) overnight. 5T4 antibodies were diluted from 6 to 1.5×10⁻³ μg/ml in 1:4 dilutions and added in duplicates of 50 μl to each well. Binding was detected with rabbit anti-h kappa L-chain-HRP (P0129, Dako Denmark) and the ELISA was developed with SuperSignal ELISA PICO Chemiluminescent substrate (Thermo Scientific Pierce, Rockford, Ill. USA) for 2-10 minutes and read in an automated microplate based multi-detection reader (FLUOstar OPTIMA, Netherlands).

[3] = biological target: T2, cynomolgus 5T4 on transfected CHO cells; assay: flow cytometry, cynomolgus 5T4-transfected CHO cells
Description: (§1) The potency of 5T4 antibodies in binding to cynomolgus 5T4 was determined by flow cytometry. CHO cells were stably transfected with […] (cynomolgus) 5T4. […] Samples were analysed either on a FACSCalibur or a FACSverse (BD Biosciences, Heidelberg, Germany) and mean fluorescence intensity (MFI) determined. […] To compare the EC50 values between human and cynomolgus 5T4, the cy5T4/hu5T4 ratio was calculated from the experiment with the full dose-response.

[4] = biological target: T6, human/mouse 5T4 chimera E3; assay: flow cytometry, cells with human/mouse 5T4 chimera
T6 construct: on transfected CHO cells
Description: (§2) Epitope mapping was performed by investigation of loss of binding by the antibodies using a panel of human/mouse chimeric 5T4 constructs by flow cytometry. […] Two strategies were used for the epitope mapping as illustrated in FIG. 5. In one approach, seven human/mouse 5T4 chimeras were constructed based on dividing 5T4 into seven different domains (FIG. 5). By replacing each domain with the corresponding mouse sequence seven human/mouse 7 5T4 human/mouse chimeras were generated. The chimeras were generated using the human protein 5T4 sequence NP_006661.1 (reference mRNA sequence NM_006670.4) and the corresponding mouse sequence NP_035757.2 (reference mRNA sequence NM_011627.4). The human/mouse chimeric DNA constructs, as well as human and mouse wild-type 5T4, were cloned into pcDNA3.1 expression vectors. […] As controls human 5T4 and mouse 5T4-transfected cells were used. For flow cytometric analysis, cells were stained with different 5T4 antibodies diluted in FACS buffer (PBS, 0.5% BSA). […] Samples were analysed by FACSverse (BD Biosciences, Heidelberg, Germany) and % positive cells were determined. To compensate for variations in % 5T4 positive cells in the various transfected populations, binding levels were normalized within each chimera by dividing % positive cells for each clone with % positive cells for the clones resulting in the highest % positive cells (% pos cellscloneX/% positive cellsₘₐₓ). A normalized value ≤0.75 was defined as mAb binding being dependent on the replaced region, whereas a normalized value ≤0.25 was defined as complete dependence.

[5] = biological target: T7, human/mouse 5T4 chimera E1; assay: flow cytometry, cells with human/mouse 5T4 chimera
T7 construct: on transfected CHO cells
Description: as §2

[6] = biological target: T8, human/mouse 5T4 chimera E5; assay: flow cytometry, cells with human/mouse 5T4 chimera
T8 construct: on transfected CHO cells
Description: as §2

[7] = biological target: T9, human/mouse 5T4 chimera E6; assay: flow cytometry, cells with human/mouse 5T4 chimera
T9 construct: on transfected CHO cells
Description: as §2

[8] = biological target: T10, human/mouse 5T4 chimera E7; assay: flow cytometry, cells with human/mouse 5T4 chimera
T10 construct: on transfected CHO cells
Description: as §2

[9] = biological target: T11, human/mouse 5T4 chimera E4; assay: flow cytometry, cells with human/mouse 5T4 chimera
T11 construct: on transfected CHO cells
Description: as §2

[10] = biological target: T12, human/mouse 5T4 chimera E2; assay: flow cytometry, cells with human/mouse 5T4 chimera
T12 construct: on transfected CHO cells
Description: as §2

[11] = biological target: T3, 5T4 (SPR antigen); assay: SPR Biacore 3000, amine-coupled 5T4, mAb injected (bivalent)
Description: Binding kinetics of the 5T4-specific mAbs have been studied using two different SPR-based platforms, the Biacore 3000 (GE Healthcare) and the MASS-1 platform (Sierra Sensors). Briefly, 5T4 was captured at the sensor chip surface either via direct amine coupling (Biacore platform) or using a streptavidin coated chip and biotinylated 5T4 (MASS-1 platform). The different 5T4-specific mAbs were then injected over the chip in increasing concentrations and the association and dissociation rates studied in real time. A 1:1 Langmuir model was used for curve fitting.

[12] = biological target: T4, mouse 5T4 on transfected cells; assay: flow cytometry, mouse 5T4-transfected cells
[13] = biological target: T2, cynomolgus 5T4 on transfected CHO cells; assay: flow cytometry, 5T4-transfected CHO cells
Description: as §1

[14] = biological target: T5, human 5T4 on transfected cells; assay: flow cytometry, 5T4-transfected B16 cells

Binder	EC50 [1]	EC50 [2]	EC50 [3]	normalized % positive cells [4]	normalized % positive cells [5]	normalized % positive cells [6]	normalized % positive cells [7]	normalized % positive cells [8]	normalized % positive cells [9]	normalized % positive cells [10]	kon [11]	binding result [12]	Ratio EC50cyno5T4/h5T4 [13]	EC50 [14]
B1	1.91 nM													
B2	0.4 nM													
B3		0.56 nM	30.7 nM	0.93	0.89	0.84	0.03	0.88	1	0.9	450000 M⁻¹ s⁻¹	no binding	140	1.4 nM
